# Measured values as given in the supplement of paper PMC10567573.
# B1: INTS3 (parent)
# chain: YPPLEGHVRQGVFSSLNHIVEKRV
# Variants of: B1
# Assay: protein stability index of a GFP-peptide fusion (GPS, HEK-293T) (PSI 1-6); higher = more stable
# Conditions: c terminus: a fixed tail appended
# 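Further: lentivirally expressed fusions sorted by FACS into six bins by GFP to DsRed ratio, PSI derived from sequencing read proportions per bin multiplied by bin number.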
row,Variant,protein stability index
1,P2Q,2.02
2,P2A,2.18
3,P2F,2.71
4,P2N,1.82
5,P2S,1.97
6,P2H,1.82
7,P2D,3.36
8,P2Y,2.6
9,H18T,2.16
10,H18D,3.39
11,H18F,1.97
12,H18Y,1.83
13,H7L,2.2
14,H7N,3.13
15,H7Q,2.36
16,H7A,2.68
17,V20N,2.34
18,V20L,2.2
19,V20R,2.9
20,V20E,3.08
21,V20F,2.78
22,G6T,3.99
23,G6H,2.98
24,G6W,2.65

row,Variant,protein stability index
1,G6P,2.76
2,G6F,2.2
3,G6C,2.39
4,G6N,2.86
5,G6Y,2.38
6,L4T,1.79
7,L4Q,2.74
8,L4A,2.7
9,L4S,2.58
10,L4R,2.32
11,K22T,2.23
12,K22F,3.12
13,K22M,1.73
14,K22A,2.29
15,K22N,2.46
16,K22S,2.09
17,K22W,2.14
18,K22H,2.65
19,F13G,3.33
20,F13W,2.4
21,F13E,3.99
22,F13Y,2.84
23,F13H,4.25
24,F13D,4.31

row,Variant,protein stability index
1,E21L,2.29
2,E21T,2.54
3,E21V,2.48
4,E21W,1.95
5,E21S,2.05
6,E21N,2.21
7,V24F,1.99
8,V24N,2.83
9,V24Y,1.95
10,V24W,2.68
11,V24R,2.9
12,V24E,3.32
13,V24K,2.4
14,E5C,2.08
15,E5Y,1.87
16,E5V,1.49
17,E5G,3.59
18,E5H,2.24
19,I19D,3.11
20,I19G,2.57
21,I19F,2.31
22,I19T,2.88
23,I19P,2.47
24,I19M,3.33

row,Variant,protein stability index
1,I19H,2.65
2,I19Q,2.52
3,R23E,2.68
4,R23V,1.85
5,R23D,2.83
6,R23T,2.53
7,R23Q,2.83
8,R23F,1.81
9,R23L,1.98
10,R23H,2.4
11,R23S,2.67
12,R23M,1.7
13,Y1D,3.85
14,Y1P,3.94
15,Y1R,4.09
16,Y1T,3.94
17,Y1K,4.07
18,Y1G,3.43
19,Y1M,3.59
20,N17I,1.86
21,N17T,2.04
22,N17L,2.46
23,N17V,1.99
24,N17Y,1.71

row,Variant,protein stability index
1,N17E,2.63
2,N17S,2.29
3,N17K,2.28
4,Q10I,1.62
5,Q10M,1.98
6,Q10L,1.72
7,Q10V,2.28
8,Q10R,2.26
9,Q10W,1.49
10,Q10D,3.18
11,Q10P,2.3
12,Q10G,2.82
13,L16D,4.2
14,L16H,2.94
15,L16Y,2.22
16,L16W,2.1
17,L16G,3.18
18,L16K,3.35
19,L16N,3.3
20,V12K,3.63
21,V12E,3.46
22,V12D,3.44
23,V12H,2.53
24,V12G,2.54

row,Variant,protein stability index
1,V12P,3.19
2,V12A,2.58
3,V12Q,3.95
4,V12I,2.37
5,V12M,2.36
6,G11E,2.88
7,G11Y,1.85
8,G11M,1.79
9,G11V,2.33
10,G11H,2.29
11,G11C,1.48
12,G11S,2.54
13,G11P,3.3
14,P3H,2.9
15,P3M,2.67
16,P3T,2.4
17,P3V,2.65
18,P3S,3.19
19,P3A,2.43
20,R9A,3.24
21,R9T,2.13
22,R9W,1.72
23,R9S,2.51
24,R9K,2.94

row,Variant,protein stability index
1,R9Y,1.92
2,R9Q,3.28
3,R9C,2.06
4,V8A,2.46
5,V8S,3
6,V8R,2.75
7,V8L,2.13
8,V8F,2.23
9,V8M,2.46
10,V8W,1.78
11,V8E,3.53
12,V8Q,2.85
13,V8T,3
14,V8D,3.25
15,S14N,2.41
16,S14Y,1.66
17,S14H,2.63
18,S15A,2.23
19,S15Y,1.33
20,S15V,2.92
21,S15R,2.12
22,S15I,1.64
23,S15E,2.17
